For the data set, the target named is eIF4E (human, UniProt P06730 1-217). Description: EMSA; KD measured but printed only in the figure; higher affinity than M6 3'OMe; EMSA: 25 nM oligo, eIF4E 5 nM to 1.5 uM (2-fold dilutions), 100 mM NaCl, 50 mM Tris-Cl (pH and remaining components cut off in material), temperature not given. Conditions: protein: recombinant; (stated for spectral shift oligos); single strand. (Mobility shift assays separate free from complexed probe on a gel.)
Sequence of eIF4E (P06730 whole entry): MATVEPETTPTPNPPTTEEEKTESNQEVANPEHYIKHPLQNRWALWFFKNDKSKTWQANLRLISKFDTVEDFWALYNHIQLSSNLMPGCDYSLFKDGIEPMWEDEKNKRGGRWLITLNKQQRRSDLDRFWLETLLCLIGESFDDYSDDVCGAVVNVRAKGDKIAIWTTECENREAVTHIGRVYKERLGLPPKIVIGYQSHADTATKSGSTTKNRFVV

B1: AG 3'OH cap 43-mer (ssRNA)
RNA: AGGAAAUAAGAGAGAAAAGAAGAGUAAGAAGAAAUAUAAGAGC
modifications: 5' cap m7GpppA(2'OMe)G; A1 is 2'-O-methyl; cap m7G not in strand
Consider B1, for which the binding result was “binds”.

For the origin of these results see PMC11835620, “CleanCap M6 inhibits decapping of exogenously delivered IVT mRNA”.
